In patent US20230407401A1 (NATIONAL INSTITUTE OF IMMUNOLOGY, published 2023):

Target: T1, S35 methionine radiolabelled BLM (in vitro translated) (UniProt P54132 1-1417, limits assumed, S35 methionine radiolabel)
T1 construct: also called in vitro translated BLM; radioactive BLM
Test: in vitro interaction of S35 methionine radiolabelled BLM with bound GST SMAD3, autoradiography
Procedure: H. BLM directly interacted with SMAD3 and HDAC1. (Top) In vitro interactions were carried out with S35 methionine radiolabelled BLM and bound (left) GST and GST SMAD3, (right) GST and GST HDAC1. Post-interaction the bound radioactive BLM was detected by autoradiography. (Bottom) Inputs used for in vitro translated BLM (detected by autoradiography) and GST, GST SMAD3, GST HDAC1 (detected by Coomassie). The

T1 sequence (P54132 whole entry): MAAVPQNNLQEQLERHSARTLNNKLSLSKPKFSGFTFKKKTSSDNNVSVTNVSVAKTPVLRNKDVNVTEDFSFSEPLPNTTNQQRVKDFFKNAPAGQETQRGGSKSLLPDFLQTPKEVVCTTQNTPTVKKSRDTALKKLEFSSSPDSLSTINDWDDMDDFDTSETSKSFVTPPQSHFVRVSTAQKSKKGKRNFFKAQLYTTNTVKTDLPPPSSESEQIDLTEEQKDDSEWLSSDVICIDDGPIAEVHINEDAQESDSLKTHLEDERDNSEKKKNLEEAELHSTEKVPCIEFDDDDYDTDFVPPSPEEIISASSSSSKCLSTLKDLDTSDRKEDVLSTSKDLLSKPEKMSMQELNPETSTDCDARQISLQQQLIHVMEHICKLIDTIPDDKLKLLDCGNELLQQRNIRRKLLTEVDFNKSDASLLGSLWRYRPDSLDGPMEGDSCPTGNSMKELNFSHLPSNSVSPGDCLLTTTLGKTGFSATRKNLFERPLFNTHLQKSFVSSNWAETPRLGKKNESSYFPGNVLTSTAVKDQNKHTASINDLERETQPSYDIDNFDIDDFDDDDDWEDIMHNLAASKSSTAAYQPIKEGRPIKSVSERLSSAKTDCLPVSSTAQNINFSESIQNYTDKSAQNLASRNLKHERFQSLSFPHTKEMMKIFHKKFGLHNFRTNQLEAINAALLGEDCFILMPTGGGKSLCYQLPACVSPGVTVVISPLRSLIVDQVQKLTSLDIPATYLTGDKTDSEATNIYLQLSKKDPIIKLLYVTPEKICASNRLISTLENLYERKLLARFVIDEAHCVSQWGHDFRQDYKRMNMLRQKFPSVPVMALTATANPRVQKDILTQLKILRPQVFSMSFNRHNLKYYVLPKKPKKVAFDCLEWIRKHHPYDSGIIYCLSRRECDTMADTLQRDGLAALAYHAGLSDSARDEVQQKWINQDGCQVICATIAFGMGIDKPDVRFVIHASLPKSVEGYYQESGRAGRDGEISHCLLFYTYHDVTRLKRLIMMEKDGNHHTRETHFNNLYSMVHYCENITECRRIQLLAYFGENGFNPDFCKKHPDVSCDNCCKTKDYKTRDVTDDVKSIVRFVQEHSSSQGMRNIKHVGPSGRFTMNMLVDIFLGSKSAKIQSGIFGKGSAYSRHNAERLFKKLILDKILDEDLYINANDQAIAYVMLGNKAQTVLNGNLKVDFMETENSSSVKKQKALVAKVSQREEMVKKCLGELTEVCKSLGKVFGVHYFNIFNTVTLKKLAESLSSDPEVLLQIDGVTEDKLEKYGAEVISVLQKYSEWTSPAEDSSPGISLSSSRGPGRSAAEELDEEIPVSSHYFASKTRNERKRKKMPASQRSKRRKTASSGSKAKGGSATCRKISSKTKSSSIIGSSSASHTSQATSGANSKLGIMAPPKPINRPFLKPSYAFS

B1: GST SMAD3 (WT) (other, UniProt P84022 1-425, looked up)
chain: MSSILPFTPPIVKRLLGWKKGEQNGQEEKWCEKAVKSLVKKLKKTGQLDELEKAITTQNVNTKCITIPRSLDGRLQVSHRKGLPHVIYCRLWRWPDLHSHHELRAMELCEFAFNMKKDEVCVNPYHYQRVETPVLPPVLVPRHTEIPAEFPPLDDYSHSIPENTNFPAGIEPQSNIPETPPPGYLSEDGETSDHQMNHSMDAGSPNLSPNPMSPAHNNLDLQPVTYCEPAFWCSISYYELNQRVGETFHASQPSMTVDGFTDPSNSERFCLGLLSNVNRNAAVELTRRHIGRGVRLYYIGGEVFAECLSDSAIFVQSPNCNQRYGWHPATVCKIPPGCNLKIFNNQEFAALLAQSVNQGFEAVYQLTRMCTIRMSFVKGWGAEYRRQTVTSTPCWIELHLNGPLQWLDKVLTQMGSPSIRCSSVS
notes: also called pGEX6-SMAD3 WT; not shown: Glutathione S-transferase tag of the pGEX6 vector
binding result: binds
